The target in test [1] is T1, human β2-adrenergic receptor (human, UniProt P07550 1-413).
T1 construct: whole, on cells; CHO-K1 cells transfected with the human β2-AR, from the University of Nottingham; also called β2-AR; β-2AR
Kind of test: [125I] ZAG saturation binding to crude membranes of CHO-K1 cells transfected with human β2-AR, non-linear regression. On the procedure: (§1) Binding studies were carried out at 37° C. by incubating membranes (500 μg protein) in 0.4 ml 50 mM Tris HCl, pH 7.5, containing 0.5 mM MgCl₂ for 60 min with various concentrations of [¹²⁵I]
(§2) Non-specific binding was determined by the binding of [¹²⁵I]

Test [2] has as its target T2, human β3-adrenergic receptor (human, UniProt P13945 1-408).
T2 construct: whole, on cells; CHO-K1 cells transfected with the β3-AR, from Astra Zeneca; also called β3-AR; β-3AR
Description: [125I] ZAG saturation binding to crude membranes of CHO-K1 cells transfected with human β3-AR, non-linear regression. As to the method: as §1, §2

The target in test [3] is T3, human β1-adrenergic receptor (human, UniProt P08588 1-477).
T3 construct: whole, on cells; CHO-K1 cells transfected with the human β1-AR, from the University of Nottingham; also called β1-AR; β-1AR
Kind of test: [125I] ZAG binding to crude membranes of CHO-K1 cells transfected with human β1-AR, non-linear regression. On the procedure:
as §1, §2

Test [4] addresses T1, human β2-adrenergic receptor. Description: [125I] ZAG binding to crude membranes of transfected CHO-K1 cells; reference is ZAG on β3-AR. On the procedure:
as §1, §2

For test [5], the target named is T2, human β3-adrenergic receptor. Description: [125I] ZAG binding to crude membranes of transfected CHO-K1 cells; reference is ZAG on β2-AR. As to the method: as §1, §2

T2 sequence (P13945 whole entry): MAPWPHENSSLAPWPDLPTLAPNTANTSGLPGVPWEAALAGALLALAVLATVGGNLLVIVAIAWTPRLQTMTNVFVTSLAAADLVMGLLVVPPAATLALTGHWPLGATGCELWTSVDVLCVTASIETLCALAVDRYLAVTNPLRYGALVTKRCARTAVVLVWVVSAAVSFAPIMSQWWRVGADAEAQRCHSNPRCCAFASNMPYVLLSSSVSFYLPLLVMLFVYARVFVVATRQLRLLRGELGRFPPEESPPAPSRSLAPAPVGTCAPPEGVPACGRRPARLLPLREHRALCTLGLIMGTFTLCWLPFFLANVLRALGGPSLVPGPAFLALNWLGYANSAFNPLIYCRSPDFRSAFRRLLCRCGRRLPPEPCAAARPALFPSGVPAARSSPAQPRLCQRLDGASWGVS
T3 sequence (P08588 whole entry): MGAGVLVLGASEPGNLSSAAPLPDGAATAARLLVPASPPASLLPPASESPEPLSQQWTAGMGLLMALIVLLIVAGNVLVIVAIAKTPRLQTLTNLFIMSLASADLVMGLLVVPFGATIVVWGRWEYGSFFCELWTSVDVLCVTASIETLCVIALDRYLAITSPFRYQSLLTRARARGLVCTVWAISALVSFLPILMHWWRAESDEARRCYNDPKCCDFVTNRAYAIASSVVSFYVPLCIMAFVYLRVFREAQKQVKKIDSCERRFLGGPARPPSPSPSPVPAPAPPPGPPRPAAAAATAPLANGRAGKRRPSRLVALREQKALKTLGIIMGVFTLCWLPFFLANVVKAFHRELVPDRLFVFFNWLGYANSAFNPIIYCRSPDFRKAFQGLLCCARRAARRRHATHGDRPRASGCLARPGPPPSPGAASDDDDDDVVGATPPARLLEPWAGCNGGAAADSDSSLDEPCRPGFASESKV

B1: recombinant human zinc-α2-glycoprotein (ZAG) (ligand)
chain: QENQDGRYSLTYIYTGLSKHVEDVPAFQALGSLNDLQFFRYNSKDRKSQPMGLWRQVEGMEDWKEDSQLQKAREDMETLKDIVEYYNDSNGSHVLQGRFGCEIENNRSSGAFWKYYYDGKDYIEFNKEIPAWVPFDPAAQITKQKWEAEPVYVQRAKAYLEEECPATLRKYLKYSKNILDRQDPPSVVVTSHQAPGEKKKLKCLAYDFYPGKIDVHWTRAGQVQEPELRGDVLHNGNGTYQSWVVVAVPPQDTAPYSCHVQHSSLAQPLVVPWEAS
modifications: 125I label (iodo bead labelling) in the membrane binding studies; labelled residues not stated
notes: Glycoprotein; also called Zn-α2-glycoprotein; rhZAG
B1 displayed a Kd in test [1] of 71 nM. In test [2], this molecule came in with a dissociation constant Kd of 46 nM. Further, the binding result in test [3] is recorded as “no binding”. Further, in test [4], the “Bmax relative to β3-AR” value was found to be 20% and the “Kd relative to β3-AR” value was 2 fold. For the same molecule, in test [5], the “Bmax relative to β2-AR” value is around 3 fold and the “Kd relative to β2-AR” value was around 0.5 fold.

What is called Kd is the concentration at which binding is half-saturated. A high value points to a looser complex.

The values are drawn from patent US20240301022A1 (ASTON UNIVERSITY, published 2024).
